The record followed here is patent US20200173986A1.

The test concerns the target endogenous SNAP25 in total cell lysate. Kind of test: sandwich ELISA with total cell lysate, fusion supernatant. (In an ELISA, binding on a coated surface is turned into a signal by an enzyme label.)

Chain of endogenous SNAP25 in total cell lysate (P60879 whole entry, the tested form may be a part): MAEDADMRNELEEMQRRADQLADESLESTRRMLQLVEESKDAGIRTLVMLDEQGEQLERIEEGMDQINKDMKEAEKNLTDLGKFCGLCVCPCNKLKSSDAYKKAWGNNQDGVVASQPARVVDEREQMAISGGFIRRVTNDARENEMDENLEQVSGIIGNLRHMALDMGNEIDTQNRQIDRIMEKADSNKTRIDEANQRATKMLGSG

B1: B4 IgG (antibody, V domains shown)
VH: EVKLVESGGGLVKPGGSLKLSCAASGFTFSNYGMSWVRQTPEKRLEWVATISSGGSYTYYPDSVKGRFTISRDNAKNTLYLQMSSLRSEDTAMYYCARHEGGGNPYFDYWGQGTTLTVSS
VL: DVLMTQTPLSLPVSLGDQASISCRSSQSLVHSNGNTYLHWYLQKPGQSPKLLIYKVSNRFSGVPDRFSGSGSGTDFTLKISRVEAEDLGVYFCSQNTLVPWTFGGGTKLEIK
Molecule B1 yielded an ELISA signal (A450) of 0.1.
